# Measured values as given in patent US20260070940A1 (Hoffmann-La Roche, published 2026).
# T1: full-length human CEA with N-terminal SNAP tag on transfected HEK293 cells (human, UniProt P06731 35-685, SNAP tag labelled with terbium)
# T1 construct: whole, on cells; also called hu CEA-SNAP; CEACAM5
# T1 sequence (looked up): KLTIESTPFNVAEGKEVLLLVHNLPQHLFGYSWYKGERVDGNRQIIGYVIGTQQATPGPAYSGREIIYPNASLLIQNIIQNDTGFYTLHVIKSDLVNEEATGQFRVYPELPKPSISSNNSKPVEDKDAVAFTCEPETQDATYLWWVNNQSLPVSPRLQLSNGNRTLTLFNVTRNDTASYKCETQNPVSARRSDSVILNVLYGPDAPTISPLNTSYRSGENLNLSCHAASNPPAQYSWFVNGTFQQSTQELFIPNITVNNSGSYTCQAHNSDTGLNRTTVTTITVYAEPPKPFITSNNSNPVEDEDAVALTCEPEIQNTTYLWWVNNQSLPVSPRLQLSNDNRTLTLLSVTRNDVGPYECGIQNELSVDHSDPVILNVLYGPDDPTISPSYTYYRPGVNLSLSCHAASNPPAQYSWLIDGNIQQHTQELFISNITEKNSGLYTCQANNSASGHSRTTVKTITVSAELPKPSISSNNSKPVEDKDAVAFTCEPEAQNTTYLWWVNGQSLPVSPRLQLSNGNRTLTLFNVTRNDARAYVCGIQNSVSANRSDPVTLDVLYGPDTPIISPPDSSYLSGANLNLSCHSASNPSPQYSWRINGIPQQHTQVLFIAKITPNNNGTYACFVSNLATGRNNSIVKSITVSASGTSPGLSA
# Biological target: T2, hu CD28-Fc (Fc-knob-avi and Fc-hole chains), biotinylated (human, biotin on the avi tag)
# T2 construct: also called CD28-Fc-avi
# Assay: SPR, bacterial supernatant;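 as to result: SPR at 25 °C with biotinylated human or murine FAP captured via neutravidin, aVH-containing bacterial supernatants diluted 1:3 as analyte, 600 s dissociation, blank supernatant without aVH as reference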
row,Binder,koff
1,anti-CD28 aVH P019.020 (VHH) VHH: EVQLVESGGGLVQPGGSLRLSCAASGFNIKDSSTYIGWVRRAPGKEEELVAYIYCTQGETRYADSVKGRFTISCDTSKNTAYLQMNSLRAEDTAVYYCASWGGNYPYYYWGQGTTVTVSS,0.0206 s⁻¹
2,anti-CD28 aVH P020.057 (VHH) VHH: EVQLVESGGGLVQPGGSLRLSCAASGFNIKDTCIGWVRRAPGKEEELVAAICYTQGDTRYADSVKGRFTISADTSKNTAYLQMNSLRAEDTAVYYCAASQYDSYYTYWGQGTTVTVSS,0.0174 s⁻¹
3,anti-CD28 aVH P020.034 (VHH) VHH: EVQLVESGGGLVQPGGSLRLSCAASGFNIKDTCIGWVRRAPGKEEELVAAICHHGGDTRYADSVKGRFTISADTSKNTAYLQMNSLRAEDTAVYYCAESQVDSYYSYWGQGTTVTVSS,0.00216 s⁻¹
4,anti-CD28 aVH P020.063 (VHH) VHH: EVQLVESGGGLVQPGGSLRLSCAASGFNIKDTCIGWVRRAPGKEEELVAAICPEYGDTRYADSVKGRFTISADTSKNTAYLQMNSLRAEDTAVYYCASSDYDSAYSYWGQGTTVTVSS,0.018 s⁻¹
5,anti-CD28 aVH P020.017 (VHH) VHH: EVQLVESGGGLVQPGGSLRLSCAASGFNIKDTCIGWVRRAPGKEEELVAAICPDEGDTRYADSVKGRFTISADTSKNTAYLQMNSLRAEDTAVYYCAAAKYDDRYNYWGQGTTVTVSS,0.0109 s⁻¹
6,anti-CD28 aVH P020.029 (VHH) VHH: EVQLVESGGGLVQPGGSLRLSCAASGFNIKDTCIGWVRRAPGKEEELVAGICEAGGDTRYADSVKGRFTISADTSKNTAYLQMNSLRAEDTAVYYCAESQQGSYYSYWGQGTTVTVSS,0.00151 s⁻¹
7,anti-CD28 aVH P020.023 (VHH) VHH: EVQLVESGGGLVQPGGSLRLSCAASGFNIKDTCIGWARRAPGKEEELVAAICDYNGHTRYADSVKGRFTISADTSKNTAYLQMNSLRAEDTAVYYCAQSDYDSKYSYWGQGTTVTVSS,0.0033 s⁻¹
8,anti-CD28 aVH P023.017 (VHH) VHH: EVQLVESGGGLVQPGGSLRLSCAASGFNIKDTCIGWVRRAPGKEEELVARICGEYGSTRYADSVKGRFTISADTSKNTAYLQMNSLRAEDTAVYYCAAQPRYYDVYDYWGQGTTVTVSS,0.0175 s⁻¹
9,anti-CD28 aVH P023.001 (VHH) VHH: EVQLVESGGGLVQPGGSLRLSCAASGFNIKDTCIGWVRRAPGKEEELVAYICPSHGYTRYADSVKGRFTISADTSKNTAYLQMNSLRAEDTAVYYCADHKNTQWGYAYWGQGTTVTVSS,0.0321 s⁻¹
10,anti-CD28 aVH P020.077 (VHH) VHH: EVQLVESGGGLVQPGGSLRLSCAASGFNIKDTCIGWVRRAPGKEEELVAGICQHYGDTRYADSVKGRFTISADTSKNTAYLQMNSLRAEDTAVYYCATDDWIYPGYIYWGQGTTVTVSS,0.0117 s⁻¹

# Now from value to binder:
row,koff,Binder
1,0.0131 s⁻¹,anti-CD28 aVH P020.037 (VHH) VHH: EVQLVESGGGLVQPGGSLRLSCAASGFNIKDTCIGWVRRAPGKEEELVAAICDSGGDTRYADSVKGRFTISADTSKNTAYLQMNSLRAEDTAVYYCAASDYNSHYSYWGQGTTVTVSS
2,0.00145 s⁻¹,anti-CD28 aVH P020.027 (VHH) VHH: EVQLVESGGGLVQPGGSLRLSCAASGFNIKDTCIGWVRRAPGKEEELVAGICRDGGDTRYADSVKGRFTISADTSKNTAYLQMNSLRAEDTAVYYCAASDYDSYYAYWGQGTTVTVSS
3,0.0144 s⁻¹,anti-CD28 aVH P020.042 (VHH) VHH: EVQLVESGGGLVQPGGSLRLSCAASGFNIKDTCIGWVRRAPGKEEELVAAICREAGDTRYADSVKGRFTISADTSKNTAYLQMNSLRAEDTAVYYCAAADYDSTYIYWGQGTTVTVSS
4,0.0135 s⁻¹,anti-CD28 aVH P020.051 (VHH) VHH: EVQLVESGGGLVQPGGSLRLSCAASGFNIKDTCIGWVRRAPGKEEELVAAICKTQGDTRYADSVKGRFTISADTSKNTAYLQMNSLRAEDTAVYYCAAANYDSPYTYWGQGTTVTVSS
5,0.00885 s⁻¹,anti-CD28 aVH P020.065 (VHH) VHH: EVQLVESGGGLVQPGGSLRLSCAASGFNIKDTCIGWVRRAPGKEEELVAGICYTYGDTRYADSVKGRFTISADTSKNTAYLQMNSLRAEDTAVYYCASSEVDSYYSYWGQGTTVTVSS
6,0.00134 s⁻¹,anti-CD28 aVH P020.035 (VHH) VHH: EVQLVESGGGLVQPGGSLRLSCAASGFNIKDTCIGWVRRAPGKEEELVADICGDDGHTRYADSVKGRFTISADTSKNTAYLQMNSLRAEDTAVYYCAYYSGSYYEYWGQGTTVTVSS
7,0.00068 s⁻¹,anti-CD28 aVH P020.010 (VHH) VHH: EVQLVESGGGLVQPGGSLRLSCAASGFNIKDTCIGWVRRAPGKEEELVAYICEGNGYTRYADSVKGRFTISADTSKNTAYLQMNSLRAEDTAVYYCAAEGKETYYYQYWGQGTTVTVSS
8,0.0777 s⁻¹,anti-CD28 aVH P023.057 (VHH) VHH: EVQLVESGGGLVQPGGSLRLSCAASGFNIKDTCIGWVRRAPGKEEELVAEICGRYGSTRYADSVKGRFTISADTSKNTAYLQMNSLRAEDTAVYYCAAEHRYPGQYTYWGQGTTVTVSS
9,0.0176 s⁻¹,anti-CD28 aVH P023.039 (VHH) VHH: EVQLVESGGGLVQPGGSLRLSCAASGFNIKDTCIGWVRRAPGKEEELVADICIKHGYTRYADSVKGRFTISADTSKNTAYLQMNSLRAEDTAVYYCADWTQSGYHYGYWGQGTTVTVSS

# Biological target: T3, murine FAP avi his, biotinylated (murine, UniProt P97321 27-761, biotin on the avi-tag)
# T3 construct: also called muFAP; mu FAP
# Assay: SPR, bacterial supernatant;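 as to result: SPR at 25 °C with biotinylated human or murine FAP captured via neutravidin, aVH-containing bacterial supernatants diluted 1:3 as analyte, 600 s dissociation, blank supernatant without aVH as reference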
binding result,koff,Binder
no binding,,anti-FAP aVH P012.090 (VHH) VHH: EVQLVESGGGLVQPGGSLRLSCAASSFNIKDTYIGWVRRAPGKEEELVAKIFRCSDGRTRYADSVKGRFTISCDTSKNTAYLQMNSLRAEDTAVYYCANIYKTHYTYWGQGTTVTVSS
no binding,,anti-FAP aVH P014.087 (VHH) VHH: EVQLVESGGGLVQPGGSLRLSCAASGFNIKDTCIGWVRRAPGKEEELVANICGHIGSTRYADSVKGRFTISADTSKNTAYLQMNSLRAEDTAVYYCANSYTYSYKYWGQGTTVTVSS
,0.00253 s⁻¹,anti-FAP aVH P034.066 (VHH) VHH: EVQLVESGGGLVQPGGSLRLSCAASGFNIKDTCIGWVRRAPGKEEELVANICGITGYTRYADSVKGRFTISADTSKNTAYLQMNSLRAEDTAVYYCAKSGGPKGYTYWGQGTTVTVSS
no binding,,anti-FAP aVH P011.064 (VHH) VHH: EVQLVESGGGLVQPGGSLRLSCAASGFNIKDTCIGWVRRAPGKEEELVANICITDGKTRYADSVKGRFTISADTSKNTAYLQMNSLRAEDTAVYYCAYYSKYIGYRYWGQGTTVTVSS
no binding,,anti-FAP aVH P011.080 (VHH) VHH: EVQLVESGGGLVQPGGSLRLSCAASGFNIKDTCIGWVRRAPGKEEELVANICQSGGYTRYADSVKGRFTISADTSKNTAYLQMNSLRAEDTAVYYCARYHKGVGYQYWGQGTTVTVSS

# Biological target: T4, human FAP avi his, biotinylated (human, UniProt Q12884 27-759, biotin on the avi-tag)
# T4 construct: also called huFAP
# Assay: SPR, bacterial supernatant;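 as to result: SPR at 25 °C with biotinylated human or murine FAP captured via neutravidin, aVH-containing bacterial supernatants diluted 1:3 as analyte, 600 s dissociation, blank supernatant without aVH as reference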
row,koff,Binder
1,0.000215 s⁻¹,anti-FAP aVH P034.066 (VHH) VHH: EVQLVESGGGLVQPGGSLRLSCAASGFNIKDTCIGWVRRAPGKEEELVANICGITGYTRYADSVKGRFTISADTSKNTAYLQMNSLRAEDTAVYYCAKSGGPKGYTYWGQGTTVTVSS

# Biological target: T1, full-length human CEA with N-terminal …
# Assay: FRET (TagLite) on hu CEA-SNAP cells
row,Binder,Kd
1,anti-CEA aVH P118.061 (VHH) VHH: EVQLVESGGGLVQPGGSLRLSCAASGFNIKDTCIGWVRRAPGKEEELVANICPYHGYTRYADSVKGRFTISADTSKNTAYLQMNSLRAEDTAVYYCAIVSYVDEYYNYWGQGTTVTVSS,14.7 nM
2,anti-CEA aVH P127.014 (VHH) VHH: EVQLVESGGGLVQPGGSLRLSCAASGFNIKDTCIGWVRRAPGKEEELVAAICTYKGTTRYADSVKGRFTISADTSKNTAYLQMNSLRAEDTAVYYCAIYSHYYDYYNYWGQGTTVTVSS,9.1 nM

# Now from value to binder:
row,Kd,Binder
1,65.4 nM,anti-CEA aVH P124.034 (VHH) VHH: EVQLVESGGGLVQPGGSLRLSCAASGFNIKDTCIGWVRRAPGKEEELVAAICPYIGETRYADSVKGRFTISADTSKNTAYLQMNSLRAEDTAVYYCATVARKYNQYNYWGQGTTVTVSS
2,399 nM,anti-CEA aVH P127.002 (VHH) VHH: EVQLVESGGGLVQPGGSLRLSCAASGFNIKDTCIGWVRRAPGKEEELVASICKYTGKTRYADSVKGRFTISADTSKNTAYLQMNSLRAEDTAVYYCAIVASGDGWYNYWGQGTTVTVSS
3,12.3 nM,anti-CEA aVH P124.021 (VHH) VHH: EVQLVESGGGLVQPGGSLRLSCAASGFNIKDTCIGWVRRAPGKEEELVAAICPYKGYTRYADSVKGRFTISADTSKNTAYLQMNSLRAEDTAVYYCANVAYSGGHYNYWGQGTTVTVSS
